{
  "source": "paper PMC6032885",
  "biological_target": "TbAlsin (T. brucei)",
  "experiment": "co-IP; equal volumes (10 uL each) of in vitro translated 35S-Met-labelled HA-tagged TbVps9 protein (bait) and TbRab (prey) mixed, 1 h at room temperature; anti-HA polyclonal antibody and protein A beads; 7 washes with 50 mM Tris pH 7.5, 150 mM NaCl, 10 mM EDTA, 0.1% Triton X-100, 10 mM MgCl2; SDS-PAGE and autoradiography",
  "data": [
    {"substance": "TbRab5A^SN (natural protein)", "values": [
      {"measurement": "percent of TbAlsin bound", "value": 50, "unit": "%"}
    ]}
  ]
}
